In patent US20110014224A1:

Biological target: HLA-B1501 (human)
Experiment: competition with radiolabeled probe peptide for purified HLA, plate capture, cpm

Question: For AVINTTCNYGQ (modifications not checked) [Mtb8.4 5-15 peptide …], which IC50 is on record?
Answer: The IC50 was 0.01 µM.
